Common to all, as to details: 20 nM; 72 h
Data set [1] deals with MCF10A. Briefly: percent viability (nuclei count relative to siNT); higher = more viable cells. On the procedure: (§1)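 After 72 h, cells were fixed and stained with Hoechst and anti-fibrillarin, and nucleoli per nucleus were counted with CellProfiler. Values are plate-adjusted percent effect for the one-nucleolus and 5+ nucleoli phenotypes, normalised to siNT (0%) and to the positive controls siNOL11 or siKIF11 (100%), as the mean of biological triplicates. Percent viability is the nuclei count relative to siNT.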

For data set [2], the system named is MCF10A. Briefly: 5+ nucleoli phenotype percent effect (relative to siNT 0% and siKIF11 100%); higher = more cells with five or more nucleoli. How it is done: as §1
Data set [3] concerns MCF10A. Description: one-nucleolus phenotype percent effect (relative to siNT 0% and siNOL11 100%); higher = more cells with one nucleolus (ribosome biogenesis inhibition). On the procedure: as §1

Turning to UAUGCAUUGUAUUUUUAGGUCC [hsa-miR-586], the percent viability with MCF10A [1] is 94.9%. For the same sequence, the “5+ nucleoli phenotype percent effect” value with MCF10A [2] was found to be 54%. Also, in the data set on MCF10A [3], the “one-nucleolus phenotype percent effect” value was -12.9%.

For the sequence “UAUGGAAAGACUUUGCCACUCU [hsa-miR-3688-3p]”, the percent viability in the data set on MCF10A [1] was 54%. Besides, the “5+ nucleoli phenotype percent effect” value with MCF10A [2] is 57.1%. For the same sequence, the “one-nucleolus phenotype percent effect” value in the data set on MCF10A [3] was -10.8%.

For “UAUGGAGGUUCUAGACCAUGUU [hsa-miR-4802-5p]”, the percent viability with MCF10A [1] amounted to 22.7%. Further, the “5+ nucleoli phenotype percent effect” value in the data set on MCF10A [2] came to 7.79%. In addition, the “one-nucleolus phenotype percent effect” value with MCF10A [3] stood at 26.9%.

“UAUGGAGUGGACUUUCAGCUGGC [hsa-miR-6514-5p]”: the percent viability with MCF10A [1] is 75%. The “5+ nucleoli phenotype percent effect” value with MCF10A [2] turned out to be 38.3%. Besides, the “one-nucleolus phenotype percent effect” value with MCF10A [3] is -0.808%.

Take “UAUGGCUUUUCAUUCCUAUGUGA [hsa-miR-135b-5p]”: in the data set with MCF10A [1], the percent viability was determined as 47.9%. The “5+ nucleoli phenotype percent effect” value in the data set on MCF10A [2] is -32.7%. In addition, the “one-nucleolus phenotype percent effect” value in the data set with MCF10A [3] was found to be 21.8%.

As for “UAUGGCUUUUUAUUCCUAUGUGA [hsa-miR-135a-5p]”, the percent viability in the data set with MCF10A [1] is 69%. In addition, the “5+ nucleoli phenotype percent effect” value in the data set with MCF10A [2] is -18.7%. Further, the “one-nucleolus phenotype percent effect” value in the data set with MCF10A [3] was -3.65%.

“UAUGGGGCUUCUGUAGAGAUUUC [hsa-miR-3675-5p]”: the percent viability in the data set with MCF10A [1] came to 37.2%. For the same sequence, the “5+ nucleoli phenotype percent effect” value in the data set with MCF10A [2] was -9.76%. In addition, in the data set on MCF10A [3], the “one-nucleolus phenotype percent effect” value came to 22.6%.

For UAUGGUACUCCUUAAGCUAAC [hsa-miR-5579-5p], in the data set with MCF10A [1], the percent viability worked out at 86.3%. In the data set on MCF10A [2], the “5+ nucleoli phenotype percent effect” value is 101%. Also, the “one-nucleolus phenotype percent effect” value with MCF10A [3] is -26.5%.

On to UAUGUAACACGGUCCACUAACC [hsa-miR-411-3p], for which, in the data set with MCF10A [1], the percent viability stood at 76%. The “5+ nucleoli phenotype percent effect” value in the data set with MCF10A [2] amounted to 22.1%. Moreover, in the data set on MCF10A [3], the “one-nucleolus phenotype percent effect” value is -6.25%.

As to UAUGUAACAUGGUCCACUAACU [hsa-miR-379-3p], the percent viability with MCF10A [1] is 89.1%. The “5+ nucleoli phenotype percent effect” value with MCF10A [2] was 38.4%. For the same sequence, the “one-nucleolus phenotype percent effect” value in the data set with MCF10A [3] is -12%.

For UAUGUAAUAUGGUCCACAUCUU [hsa-miR-380-3p], the percent viability with MCF10A [1] came out at 90%. Besides, the “5+ nucleoli phenotype percent effect” value in the data set on MCF10A [2] is -13.1%. Also, the “one-nucleolus phenotype percent effect” value with MCF10A [3] was determined as 0.458%.

For “UAUGUAGUAGUCAAAGGCAUUU [hsa-miR-7852-3p]”, the percent viability in the data set on MCF10A [1] was determined as 81.4%. Also, the “5+ nucleoli phenotype percent effect” value in the data set on MCF10A [2] is -8.45%. The “one-nucleolus phenotype percent effect” value with MCF10A [3] was -3.81%.

On to UAUGUCCCAUCCCUCCAUCA [hsa-miR-6834-3p], for which, in the data set with MCF10A [1], the percent viability amounted to 22.7%. The “5+ nucleoli phenotype percent effect” value in the data set with MCF10A [2] is -28.7%. For the same sequence, the “one-nucleolus phenotype percent effect” value with MCF10A [3] was 21.4%.

On to UAUGUCUGCUGACCAUCACCUU [hsa-miR-654-3p], for which the percent viability in the data set on MCF10A [1] came to 38%. In the data set with MCF10A [2], the “5+ nucleoli phenotype percent effect” value was -34.7%. For the same sequence, the “one-nucleolus phenotype percent effect” value in the data set on MCF10A [3] was 28.2%.

Turning to UAUGUGACCUCGGAUGAAUCA [hsa-miR-4501], the percent viability in the data set on MCF10A [1] was determined as 19.8%. Moreover, the “5+ nucleoli phenotype percent effect” value with MCF10A [2] was -23.6%. The “one-nucleolus phenotype percent effect” value with MCF10A [3] was determined as 40.8%.

For UAUGUGCCUUUGGACUACAUCG [hsa-miR-455-5p], the percent viability in the data set on MCF10A [1] is 44.7%. Also, the “5+ nucleoli phenotype percent effect” value in the data set with MCF10A [2] was -19.3%. In addition, the “one-nucleolus phenotype percent effect” value with MCF10A [3] was -2.17%.

For UAUGUGGGAUGGUAAACCGCUU [hsa-miR-299-3p], in the data set with MCF10A [1], the percent viability turned out to be 45.6%. Further, the “5+ nucleoli phenotype percent effect” value in the data set on MCF10A [2] was -20.9%. Also, the “one-nucleolus phenotype percent effect” value with MCF10A [3] came out at 13.9%.

With UAUUCAGAAAGGUGCCAGUCA [hsa-miR-892c-5p], the percent viability in the data set with MCF10A [1] amounted to 71.8%. The “5+ nucleoli phenotype percent effect” value in the data set on MCF10A [2] is 9.47%. Further, the “one-nucleolus phenotype percent effect” value with MCF10A [3] was -3.71%.

On to UAUUCAGGAAGGUGUUACUUAA [hsa-miR-506-5p], for which the percent viability in the data set with MCF10A [1] is 91%. The “5+ nucleoli phenotype percent effect” value in the data set with MCF10A [2] was -1.47%. Further, in the data set with MCF10A [3], the “one-nucleolus phenotype percent effect” value is -9.8%.

For “UAUUCAUUUAUCCCCAGCCUACA [hsa-miR-664a-3p]”, the percent viability with MCF10A [1] stood at 121%. For the same sequence, the “5+ nucleoli phenotype percent effect” value with MCF10A [2] worked out at 26%. In addition, the “one-nucleolus phenotype percent effect” value with MCF10A [3] is -21%.

Take UAUUGCACAUUACUAAGUUGCA [hsa-miR-32-5p]: in the data set on MCF10A [1], the percent viability worked out at 123%. Further, the “5+ nucleoli phenotype percent effect” value with MCF10A [2] was found to be 9.82%. Also, the “one-nucleolus phenotype percent effect” value in the data set on MCF10A [3] was -7.37%.

For the sequence UAUUGCACUCGUCCCGGCCUCC [hsa-miR-92b-3p], the percent viability with MCF10A [1] turned out to be 76.9%. For the same sequence, the “5+ nucleoli phenotype percent effect” value with MCF10A [2] stood at 2.75%. Besides, in the data set on MCF10A [3], the “one-nucleolus phenotype percent effect” value was -7.61%.

Take UAUUGCACUUGUCCCGGCCUGU [hsa-miR-92a-3p]: the percent viability in the data set with MCF10A [1] turned out to be 88.8%. In addition, the “5+ nucleoli phenotype percent effect” value with MCF10A [2] stood at 4.47%. The “one-nucleolus phenotype percent effect” value in the data set on MCF10A [3] is -3.22%.

In the case of UCAAAACUGAGGGGCAUUUUCU [hsa-miR-1323], the percent viability with MCF10A [1] was found to be 55.9%. Besides, the “5+ nucleoli phenotype percent effect” value in the data set with MCF10A [2] came out at 27.8%. For the same sequence, the “one-nucleolus phenotype percent effect” value in the data set with MCF10A [3] was -19.4%.

Take UCAAAAUCAGGAGUCGGGGCUU [hsa-miR-8063]: the percent viability in the data set with MCF10A [1] turned out to be 81.3%. Besides, in the data set with MCF10A [2], the “5+ nucleoli phenotype percent effect” value worked out at 18.2%. The “one-nucleolus phenotype percent effect” value in the data set with MCF10A [3] was -23.1%.

As for UCAAAAUGUAGAGGAAGACCCCA [hsa-miR-4698], the percent viability with MCF10A [1] is 127%. Also, the “5+ nucleoli phenotype percent effect” value in the data set on MCF10A [2] amounted to 21.6%. Also, in the data set with MCF10A [3], the “one-nucleolus phenotype percent effect” value was -18.4%.

For the sequence UCAAAUGCAGAUCCUGACUUC [hsa-miR-7853-5p], the percent viability in the data set on MCF10A [1] was 42.1%. Further, the “5+ nucleoli phenotype percent effect” value with MCF10A [2] is 14%. Further, the “one-nucleolus phenotype percent effect” value in the data set on MCF10A [3] is -15.6%.

With “UCAAAUGCUCAGACUCCUGUGGU [hsa-miR-105-5p]”, in the data set on MCF10A [1], the percent viability was found to be 37.7%. Moreover, the “5+ nucleoli phenotype percent effect” value in the data set on MCF10A [2] was -18%. The “one-nucleolus phenotype percent effect” value with MCF10A [3] was -6.5%.

For the sequence “UCAACAAAAUCACUGAUGCUGGA [hsa-miR-3065-5p]”, the percent viability with MCF10A [1] came out at 117%. The “5+ nucleoli phenotype percent effect” value in the data set with MCF10A [2] is 38.2%. The “one-nucleolus phenotype percent effect” value in the data set with MCF10A [3] was -30.5%.

Take “UCAAGAGCAAUAACGAAAAAUGU [hsa-miR-335-5p]”: the percent viability with MCF10A [1] came out at 79.4%. For the same sequence, in the data set with MCF10A [2], the “5+ nucleoli phenotype percent effect” value amounted to 37.7%. In addition, in the data set with MCF10A [3], the “one-nucleolus phenotype percent effect” value was -9.96%.

As for “UCAAGGCCAGAGGUCCCACAGCA [hsa-miR-3922-5p]”, the percent viability in the data set on MCF10A [1] is 30.9%. Moreover, in the data set on MCF10A [2], the “5+ nucleoli phenotype percent effect” value was -12.7%. In the data set on MCF10A [3], the “one-nucleolus phenotype percent effect” value was 6.44%.

As for UCAAGUAGUUUCAUGAUAAAGG [hsa-miR-5697], the percent viability with MCF10A [1] stood at 118%. In addition, the “5+ nucleoli phenotype percent effect” value with MCF10A [2] is 12.5%. In the data set on MCF10A [3], the “one-nucleolus phenotype percent effect” value is -14.6%.

In the case of UCAAGUGUCAUCUGUCCCUAG [hsa-miR-6513-3p], the percent viability in the data set with MCF10A [1] was found to be 126%. The “5+ nucleoli phenotype percent effect” value in the data set with MCF10A [2] worked out at 42.1%. Further, the “one-nucleolus phenotype percent effect” value with MCF10A [3] is -7.47%.

For UCAAUAAAUGUCUGUUGAAUU [hsa-miR-95-5p], in the data set with MCF10A [1], the percent viability was found to be 101%. For the same sequence, the “5+ nucleoli phenotype percent effect” value in the data set on MCF10A [2] turned out to be 26.3%. Besides, the “one-nucleolus phenotype percent effect” value with MCF10A [3] was -26.5%.

On to “UCAAUAGGAAAGAGGUGGGACCU [hsa-miR-6826-5p]”, for which the percent viability with MCF10A [1] came to 33.3%. The “5+ nucleoli phenotype percent effect” value in the data set with MCF10A [2] was -20.8%. Moreover, the “one-nucleolus phenotype percent effect” value in the data set with MCF10A [3] amounted to 26.5%.

Turning to UCAAUCACUUGGUAAUUGCUGU [hsa-miR-4705], in the data set on MCF10A [1], the percent viability worked out at 53.1%. In addition, the “5+ nucleoli phenotype percent effect” value with MCF10A [2] turned out to be 38.7%. Moreover, the “one-nucleolus phenotype percent effect” value in the data set with MCF10A [3] is -19.5%.
